Source: patent US8815806B2, “Yellow pea seed protein-derived peptides” (University of Manitoba, priority 2009, dated 2014)

Columns and labels:
human recombinant renin = target: T1, human recombinant renin (Homo sapiens, UniProt P00797); assay: Renin inhibitory activity assay (fluorometric); assay type: biochemical; conditions: Table 1; peptide concentration not given
T1 construct: purchased Cayman Chemical; host or cells: HEK cells
T1 sequence (P00797 67-406): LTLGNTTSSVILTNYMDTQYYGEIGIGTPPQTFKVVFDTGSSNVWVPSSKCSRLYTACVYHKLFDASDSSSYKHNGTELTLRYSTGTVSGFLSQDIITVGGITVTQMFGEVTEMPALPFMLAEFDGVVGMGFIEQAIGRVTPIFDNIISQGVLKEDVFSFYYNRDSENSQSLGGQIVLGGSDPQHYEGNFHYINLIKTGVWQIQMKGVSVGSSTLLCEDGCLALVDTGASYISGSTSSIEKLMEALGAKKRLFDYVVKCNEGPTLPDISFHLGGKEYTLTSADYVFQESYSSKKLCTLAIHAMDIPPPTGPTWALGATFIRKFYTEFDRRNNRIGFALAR
Experimental: Renin inhibitory activity assays were carried out on a Shimadzu RF 1501 spectrofluorometer equipped with thermostated cell holder according to the method of Wang, Chung, Holzman, & Krafft (1993) with some modifications (FIG. 5 and Table 1). The following instrumental parameters were used: excitation wavelength, 340 nm; emission wavelength, 490 nm; excitation and emission bandwidth, 10 nm. A standard 2 mL, 1 cm pathlength cuvettes containing 1 mL of buffer (or 1 mL varied peptide concentrations) and 1 mL of 2.5 μM substrate, was equilibrated at 37° C. for 5 min to gain thermal equilibrium. A 15 μL of renin (0.4 μg renin) was then added to the cuvette to initiate the reaction. The time dependent increase of fluorescence intensity was monitored for 5 min. The initial reaction velocity, expressed in arbitrary fluorescence units per minute (FU/min), was calculated by least-squares analysis of the initial phase of the reaction. The renin inhibiting activity of the peptide fractions and the individual peptides within are described in Table 1.
Renin inhibiting assay was modified from the fluorometric assay developed for renin activity measurement (FIG. 5). […] The Michaelis-Menten constant (Km) in our study is 3.8 μM for human recombinant renin in the absence of peptide fractions. This value is close to the reported KM of 3.6 μM using the same source of renin and substrate under similar assay conditions (Holzman et al 1991). However, Km of human recombinant renin was also reported to be 1.62 μM (Toshihisa et al., 1992), or 1.25 μM in purified human renal renin acting on pure human plasma angiotensingen at pH 5.7 (Cumin et al., 1987), 1.54 μM at pH 6.5 (Slater and Strout 1981). The Km value for the reaction between renin and substrate also depends on pH, ionic strength, the medium and the assay procedure used (Poulsen et al., 1976). The Michaelis-Menten constants were increased to 6.3 and 6.1 μM, respectively in the presence of peptide fractions of T4 and T5, indicating decreased binding ability between renin and substrate because of the presence of competitive peptide inhibitors.

[1] = test system: spontaneously hypertensive rats (SHR); assay: Spontaneously hypertensive rats, oral gavage, systolic blood pressure by tail-cuff; assay type: in vivo, rat; conditions: for change in systolic blood pressure (ΔSBP): 24 hour after oral gavage, 30 mg/kg BW; for hypotensive activities, duration of effect: over a 24 hr period, oral 30 mg/kg BW, FIG. 16
Experimental: Animal experiments were carried out following the Canadian Council on Animal Care ethics guidelines with a protocol approved by the University of Manitoba Animal Protocol and Management Review Committee. The spontaneously hypertensive rats (SHR) were kept in the Animal Housing Facility at the Richardson Centre for Functional Foods and Nutraceuticals, University of Manitoba under a 12-hr day and night cycle at 21° C. and were fed a regular chow diet and tap water, ad libitum. The SHR were divided into […] that received the following treatments (dissolved in phosphate buffered saline, pH 7.2): ADMFPF (SEQ ID NO. 23) peptide (n=6), WMP (SEQ ID NO. 15) peptide (n=6), captopril (positive control, n=6), saline (negative control, n=6). The peptides (each at 30 mg/kg body weight, BW) and captopril (3 mg/kg BW) were administered to the SHR by oral gavage followed by measurement of systolic blood pressure (SBP) at 2, 4, 6, 8 and 24 hr by the tail-cuff method in slightly anesthesized rats. Prior to sample administration, the baseline (time zero) SBP was determined. In order to mitigate the blood pressure (BP) depression effect of isofluorane, the gas flow was optimized such that rats became conscious usually within 3-4 min after removal from the chamber, which provided enough time to perform the blood pressure measurement. Rats were first anesthesized in a chamber (maintained at about 40° C.) with 4% isofluorane for 4 min. They were then removed from the isofluorane chamber and tail-cuff measurement of blood pressure performed in the […]. The change in SBP (ΔSBP, mmHg) was determined by subtracting the data for the different time points from their respective baseline data.

| Molecule | RENIN INHIBITION % (human recombinant renin) [%] | other results |
| --- | --- | --- |
| SEQ ID NO. 19: peptide identified within the bioactive fractions of yellow pea protein hydrolysate (YPRE; listed as Pisum sativum) | 22.19 |  |
| SEQ ID NO. 14: peptide identified within the bioactive fractions of yellow pea protein hydrolysate (RAAP; listed as Pisum sativum) | 15.39 |  |
| WMP (listed as Pisum sativum) [SEQ ID NO. 15] | 43.37 | change in systolic blood pressure (ΔSBP) [1]: −14 mmHg; hypotensive activities, duration of effect [1]: comparable to captopril; hypotensive effects compared with ADMFPF ([1]; up to 8 hours after oral administration): initial higher hypotensive effects |
| ADMFPF (listed as Pisum sativum) [SEQ ID NO. 23] |  | change in systolic blood pressure (ΔSBP) [1]: −25 mmHg; hypotensive activities, duration of effect [1]: comparable to captopril |
| C[C@H](CS)C(=O)N1CCC[C@H]1C(=O)O [Captopril, captopril, reference compound] |  | hypotensive effect compared to ADMFPF ([1]; after 24 hour, captopril 3 mg/kg BW oral): less effective |
| SEQ ID NO. 17: peptide identified within the bioactive fractions of yellow pea protein hydrolysate (RSPD; listed as Pisum sativum) | 57.53 |  |
| SEQ ID NO. 13: peptide identified within the bioactive fractions of yellow pea protein hydrolysate (WLP; listed as Pisum sativum) | 4.85 |  |
| SEQ ID NO. 18: peptide identified within the bioactive fractions of yellow pea protein hydrolysate (WPHT; listed as Pisum sativum) | 9.30 |  |
